Test results: patent US20170008955A1 (CNJ, published 2017)
Positions count from the first letter of the chain named. Values belong to the binder of their own block, whether it stands above or below them.

What was measured:
cSNK:BSA conjugate [1] = molecular target: T1, cSNK:BSA conjugate (bovine, head-to-tail cyclized; conjugated to BSA carrier); experiment: BLI 2:1 fit, site 2 (KD2); 50 nM row
T1 construct: also called BSA-cSNK
Experimental: (§1) Biolayer interferometry (Octet […], ForteBio) was used to qualitatively/quantitatively assess the interactions between humanized versions of 5E3 and cSNK:BSA conjugate. […] MAbs were loaded onto sensors and then washed in PBST. Each sensor was associated with one of several cSNK:BSA standards (100 nM to 0 nM) and then washed in PBST. Data was processed statistically using ForteBio Data Analysis software to determine the strength of antigen-antibody binding (KD). For each mAb analyzed, a 2:1 model provided the “best fit”.

cSNK:BSA conjugate [2] = molecular target: T1, cSNK:BSA conjugate; experiment: BLI 2:1 fit, site 2 (kon2); 50 nM row
Experimental: as §1

cSNK:BSA conjugate [3] = molecular target: T1, cSNK:BSA conjugate; experiment: BLI 2:1 fit, site 2 (KD2); 6.25 nM row
Experimental: as §1

cSNK:BSA conjugate [4] = molecular target: T1, cSNK:BSA conjugate; experiment: BLI 2:1 fit, site 2 (kon2); 12.5 nM row
Experimental: as §1

cSNK:BSA conjugate [5] = molecular target: T1, cSNK:BSA conjugate; experiment: BLI 2:1 fit, site 2 (kdis2); 12.5 nM row
Experimental: as §1

cSNK:BSA conjugate [6] = molecular target: T1, cSNK:BSA conjugate; experiment: BLI 2:1 fit, site 2 (kdis2); 3.13 nM row
Experimental: as §1

cSNK:BSA conjugate [7] = molecular target: T1, cSNK:BSA conjugate; experiment: BLI 2:1 fit, site 2 (kdis2); 1.56 nM row
Experimental: as §1

Ovalbumin [8] = molecular target: T2, Ovalbumin (UniProt P01012 2-386); experiment: Western blot of BSA, BSA-cSNK and ovalbumin probed with hu5E3-IgG1
T2 sequence (looked up): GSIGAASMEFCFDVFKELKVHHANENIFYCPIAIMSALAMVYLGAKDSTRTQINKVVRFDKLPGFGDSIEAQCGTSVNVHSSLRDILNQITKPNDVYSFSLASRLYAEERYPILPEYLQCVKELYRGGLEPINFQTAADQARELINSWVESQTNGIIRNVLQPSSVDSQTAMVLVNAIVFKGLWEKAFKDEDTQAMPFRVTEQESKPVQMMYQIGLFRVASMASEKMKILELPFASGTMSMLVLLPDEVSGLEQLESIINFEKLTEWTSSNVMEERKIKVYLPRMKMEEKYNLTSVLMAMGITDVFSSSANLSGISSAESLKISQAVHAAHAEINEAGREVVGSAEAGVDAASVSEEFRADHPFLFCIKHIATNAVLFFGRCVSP

Aβ42 oligomers [9] = molecular target: T3, Aβ42 oligomers (UniProt P05067 672-713); experiment: Biacore (SPR), Aβ oligomer preparation AβO1 (HQ AβO1); upper end of the range
T3 construct: domain: Aβ42; immobilized preparation containing monomers, low and high molecular weight oligomers; also called Amyloid beta oligomers; Aβ oligomers
T3 sequence (P05067 672-713 limits assumed): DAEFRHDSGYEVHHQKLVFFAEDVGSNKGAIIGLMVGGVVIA
Experimental: (§2) Using a Biacore™ 3000, Aβ42 oligomers were immobilized (containing monomers, low and high molecular weight oligomers) and BSA (reference surface) on 4 separate flow cells of a biosensorchip. Murine 5E3 or humanized 5E3 IgG1, IgG2, and IgG4 were then diluted, sequentially injected over the different immobilized peptides and antibody binding monitored in real time. Binding data was collected by sequentially injecting buffer blanks, 1/10 dilutions of m5E3 or 1 uM dilutions of hu5E3 control over separate flow cells immobilized with BSA or Aβ42 oligomer on another biosensor chip at a flow rate of 10 μl/minute. Association was allowed for 200 seconds, followed by dissociation for 500 seconds and binding responses collected 10 seconds before the end of the […]. All binding responses were double-referenced by subtracting buffer blanks and BSA reference surface binding.
(§3) Results: As shown in FIG. 9A and FIG. 9B, the humanized 5E3 isotypes bound to the Aβ42 oligomer preparation. Affinity constants were determined for hu5E3 IgG1 Aβ42 oligomer preparations.

Aβ42 oligomers [10] = molecular target: T3, Aβ42 oligomers; experiment: Biacore (SPR), Aβ oligomer preparation AβO1' (HQ AβO1'); lower end of the range
Experimental: as §2, §3

Aβ42 oligomers [11] = molecular target: T3, Aβ42 oligomers; experiment: Biacore (SPR), Aβ oligomer preparation AβO1' (HQ AβO1'); upper end of the range
Experimental: as §2, §3

Ovalbumin [12] = molecular target: T2, Ovalbumin; experiment: Western blot of BSA, BSA-cSNK and ovalbumin probed with m5E3
Experimental: (§4) A 4-12% gradient SDS-PAGE gel was run with cSNK-BSA. The gel was then transferred to a nitrocellulose membrane. The next day the mAbs (1° Ab) were diluted to 2 μg/ml to 5 μg/ml depending on the antibody, and used to probe the membrane at room temperature (RT). The membranes were then probed with anti-mouse IgG-HRP (2° Ab).

cSNK:BSA conjugate [13] = molecular target: T1, cSNK:BSA conjugate; experiment: BLI (Octet RED96), 2:1 kinetics, KD2, summary table; KD2, summary table
Experimental: as §1
Table 7 summarizes the affinity constants of humanized 5E3 IgG1, IgG2 and IgG4 constructs. The KD ranges were determined using 2:1 kinetics of binding of analyte (BSA-cSNK) in solution to two different binding sites on the surface (immobilized bivalent, monospecific 5E3) in comparison to murine 5E3 using biolayer interferometry (Octet RED96).

Ovalbumin [14] = molecular target: T2, Ovalbumin; experiment: Western immunoblot, FIGS. 3A-D
Experimental: as §4

cSNK:BSA conjugate [15] = molecular target: T1, cSNK:BSA conjugate; experiment: BLI 2:1 fit, site 1 (KD1); 25 nM row
Experimental: as §1

cSNK:BSA conjugate [16] = molecular target: T1, cSNK:BSA conjugate; experiment: BLI 2:1 fit, site 1 (KD1); 50 nM row
Experimental: as §1

cSNK:BSA conjugate [17] = molecular target: T1, cSNK:BSA conjugate; experiment: BLI 2:1 fit, site 1 (KD1); 12.5 nM row
Experimental: as §1

cSNK:BSA conjugate [18] = molecular target: T1, cSNK:BSA conjugate; experiment: BLI 2:1 fit, site 1 (KD1); 6.25 nM row
Experimental: as §1

T1 sequence (P02769 25-607 limits assumed): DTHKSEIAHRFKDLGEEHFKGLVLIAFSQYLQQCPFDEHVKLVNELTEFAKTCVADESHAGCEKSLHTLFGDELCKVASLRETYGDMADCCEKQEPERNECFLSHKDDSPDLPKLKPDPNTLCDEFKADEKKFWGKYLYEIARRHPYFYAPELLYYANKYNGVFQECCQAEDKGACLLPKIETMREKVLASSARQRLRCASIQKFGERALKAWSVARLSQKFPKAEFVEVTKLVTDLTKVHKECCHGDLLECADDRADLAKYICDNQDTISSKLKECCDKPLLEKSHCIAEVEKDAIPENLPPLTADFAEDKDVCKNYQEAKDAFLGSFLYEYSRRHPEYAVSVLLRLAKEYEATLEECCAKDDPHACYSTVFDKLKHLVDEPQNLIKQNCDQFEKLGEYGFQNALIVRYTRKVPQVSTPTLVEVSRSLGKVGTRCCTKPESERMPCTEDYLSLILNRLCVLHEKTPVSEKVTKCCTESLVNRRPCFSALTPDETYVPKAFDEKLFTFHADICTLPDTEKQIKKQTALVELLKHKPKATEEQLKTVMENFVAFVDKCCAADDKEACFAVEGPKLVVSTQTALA

Kd (cSNK:BSA conjugate [1]): 0.00159 µM | kon (cSNK:BSA conjugate [2]): 1.42e+07 M⁻¹ s⁻¹ | Kd (cSNK:BSA conjugate [3]): 0.00159 µM | kon (cSNK:BSA conjugate [4]): 1.42e+07 M⁻¹ s⁻¹ | koff (cSNK:BSA conjugate [5]): 0.0226 s⁻¹ | koff (cSNK:BSA conjugate [6]): 0.0226 s⁻¹ | koff (cSNK:BSA conjugate [7]): 0.0226 s⁻¹ | binding result (Ovalbumin [12]): no binding | Kd (cSNK:BSA conjugate [13]): 0.00159 µM
B2: murine monoclonal antibody 5E3 (antibody, V domains shown)
VH: QVQLQQSGPELVKPGASVRISCKASGYIFTSYYIQWVIHRPGQGLEWIGWIYPGNVNTKYNEKFKGKATLTADKSSSTAYMQLSRLTSEDSAVYFCARMDYEAHYWGQGTTLTVSS
VL: DIQMTQSPSSLSASLGERVSLTCRASQEISGYLTWLQQKPDGTIKRLIYAASTLDSGVPKRFSGSRSGSDYSLTISSLESEDFADYNCLQYANYPRTFGGGTKLEIK
notes: mouse antibody of the 5E3 hybridoma; also called murine 5E3; m5E3

binding result (Ovalbumin [14]): no binding | Kd (cSNK:BSA conjugate [1]): 0.00304 µM | kon (cSNK:BSA conjugate [2]): 7.52e+06 M⁻¹ s⁻¹ | Kd (cSNK:BSA conjugate [3]): 0.00304 µM | kon (cSNK:BSA conjugate [4]): 7.52e+06 M⁻¹ s⁻¹ | koff (cSNK:BSA conjugate [5]): 0.0229 s⁻¹ | koff (cSNK:BSA conjugate [6]): 0.0229 s⁻¹ | koff (cSNK:BSA conjugate [7]): 0.0229 s⁻¹
B3: hu5E3-IgG4 (antibody, V domains shown)
VH: B2 VH with L11V, V12K, R19K, R40A, Q82E, R85S, S91T, L112V
VL: B2 VL with L15V, E17D, S20T, L21I, D41E, T43A, E79Q, S80P, D85T
notes: human IgG4/kappa; also called humanized 5E3 IgG4

binding result (Ovalbumin [14]): no binding | Kd (cSNK:BSA conjugate [1]): 0.00639 µM | kon (cSNK:BSA conjugate [2]): 5.28e+06 M⁻¹ s⁻¹ | Kd (cSNK:BSA conjugate [3]): 0.00639 µM | kon (cSNK:BSA conjugate [4]): 5.28e+06 M⁻¹ s⁻¹ | koff (cSNK:BSA conjugate [5]): 0.0338 s⁻¹ | koff (cSNK:BSA conjugate [6]): 0.0338 s⁻¹
B4: hu5E3-IgG2 (antibody, V domains shown)
VH: B2 VH with L11V, V12K, R19K, R40A, Q82E, R85S, S91T, L112V
VL: B2 VL with L15V, E17D, S20T, L21I, D41E, T43A, E79Q, S80P, D85T
notes: human IgG2/kappa; also called humanized 5E3 IgG2

More lines, now with the values behind:

B1: hu5E3-IgG1 (antibody, V domains shown)
VH: B2 VH with L11V, V12K, R19K, R40A, Q82E, R85S, S91T, L112V
VL: B2 VL with L15V, E17D, S20T, L21I, D41E, T43A, E79Q, S80P, D85T
notes: human IgG1/kappa; also called humanized 5E3 IgG1; IHA variant
Kd (cSNK:BSA conjugate [1]): 0.00182 µM | kon (cSNK:BSA conjugate [2]): 6.56e+06 M⁻¹ s⁻¹ | Kd (cSNK:BSA conjugate [3]): 0.00182 µM | kon (cSNK:BSA conjugate [4]): 6.56e+06 M⁻¹ s⁻¹ | koff (cSNK:BSA conjugate [5]): 0.012 s⁻¹ | koff (cSNK:BSA conjugate [6]): 0.012 s⁻¹ | koff (cSNK:BSA conjugate [7]): 0.012 s⁻¹ | binding result (Ovalbumin [8]): no binding | Kd (Aβ42 oligomers [9]): ≤ 3290 µM | Kd (Aβ42 oligomers [10]): ≥ 34 µM | Kd (Aβ42 oligomers [11]): ≤ 51.7 µM

B5: rehu5E3-IgG4 (antibody, V domains shown)
VH: B2 VH with L11V, R19K, R40A, Q82E, R85S, T87R, T111L, L112V
VL: B2 VL with E17D, S20T, D41E, G42K, T43A, S72T, E79Q, S80P
notes: human IgG4/kappa; also called IgG4 rehu version
Kd (cSNK:BSA conjugate [1]): 0.00394 µM | Kd (cSNK:BSA conjugate [15]): 0.000557 µM | Kd (cSNK:BSA conjugate [16]): 0.000557 µM | kon (cSNK:BSA conjugate [2]): 4.44e+06 M⁻¹ s⁻¹ | Kd (cSNK:BSA conjugate [3]): 0.00394 µM | Kd (cSNK:BSA conjugate [17]): 0.000557 µM | Kd (cSNK:BSA conjugate [18]): 0.000557 µM | kon (cSNK:BSA conjugate [4]): 4.44e+06 M⁻¹ s⁻¹ | koff (cSNK:BSA conjugate [5]): 0.0175 s⁻¹ | koff (cSNK:BSA conjugate [6]): 0.0175 s⁻¹ | koff (cSNK:BSA conjugate [7]): 0.0175 s⁻¹
